Results on four molecules are retold here after paper PMC6934326, “A kinase-dependent checkpoint prevents escape of immature ribosomes into the translating pool” (PLoS Biology, 2019).

The term Kd denotes the free concentration of one partner at which half of the binding sites on the other are occupied at equilibrium, for simple one-to-one binding. A higher Kd goes with a looser complex.

The test system of series [1] is Nob1. The experiment in a line: EMSA. As to conditions: 40 mM HEPES pH 7.6, 50 mM KCl, 10 mM MgCl2, 10 min at 30 C; trace 32P RNA prefolded at 65 C in 40 mM HEPES pH 7.6, 100 mM KCl, 2 mM MgCl2; 6% acrylamide/THEM …. Background: In EMSA bound probe runs differently from free probe, usually more slowly.
In series [2] the target is T1, maltose-binding protein (MBP)-Rio1 (Saccharomyces cerevisiae (strain ATCC …, UniProt Q12196)).
T1 chain: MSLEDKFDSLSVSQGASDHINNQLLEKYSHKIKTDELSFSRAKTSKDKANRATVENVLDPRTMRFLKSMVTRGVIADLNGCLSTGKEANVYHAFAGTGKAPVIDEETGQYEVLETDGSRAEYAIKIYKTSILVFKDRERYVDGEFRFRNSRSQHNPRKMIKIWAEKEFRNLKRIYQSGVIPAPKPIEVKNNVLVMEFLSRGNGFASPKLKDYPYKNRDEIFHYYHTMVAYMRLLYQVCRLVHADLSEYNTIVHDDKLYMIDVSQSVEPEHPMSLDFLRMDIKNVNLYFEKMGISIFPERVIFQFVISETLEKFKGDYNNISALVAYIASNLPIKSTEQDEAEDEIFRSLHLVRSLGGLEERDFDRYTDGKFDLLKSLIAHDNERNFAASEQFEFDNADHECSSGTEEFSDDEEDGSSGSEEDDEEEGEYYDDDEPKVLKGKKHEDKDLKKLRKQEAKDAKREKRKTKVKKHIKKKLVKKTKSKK
Description: MBP pull-down (amylose resin), Coomassie SDS-PAGE; tested with AMPPNP; Rio1 binds only when Nob1 and Pno1 are both present (with AMPPNP, little to none with ADP).

Series [3] addresses T2, MBP-Pno1 (Saccharomyces cerevisiae (strain ATCC …, UniProt Q99216)).
T2 chain: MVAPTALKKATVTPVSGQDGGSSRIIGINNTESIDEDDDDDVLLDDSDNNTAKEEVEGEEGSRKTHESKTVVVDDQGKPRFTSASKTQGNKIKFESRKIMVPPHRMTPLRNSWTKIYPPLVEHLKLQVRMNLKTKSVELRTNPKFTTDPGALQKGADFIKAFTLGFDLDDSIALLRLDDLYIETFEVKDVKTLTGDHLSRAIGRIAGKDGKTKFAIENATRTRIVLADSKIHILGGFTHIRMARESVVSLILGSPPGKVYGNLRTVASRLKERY
The experiment in a line: MBP pull-down (amylose resin), Coomassie SDS-PAGE; tested with AMPPNP; Rio1 binding requires Nob1 as well as Pno1.

Series [4] addresses T3, Nob1–Pno1 complex (S. cerevisiae, UniProt Q08444 1-459; Q99216 1-274).
T3 construct: Nob1, S. cerevisiae, untagged, as m2; Pno1, S. cerevisiae, untagged, as m3; The two proteins were added together with MBP-Rio1 and preincubated; the complex was not isolated beforehand; also called Nob1 and Pno1
T3 sequence (looked up) 1: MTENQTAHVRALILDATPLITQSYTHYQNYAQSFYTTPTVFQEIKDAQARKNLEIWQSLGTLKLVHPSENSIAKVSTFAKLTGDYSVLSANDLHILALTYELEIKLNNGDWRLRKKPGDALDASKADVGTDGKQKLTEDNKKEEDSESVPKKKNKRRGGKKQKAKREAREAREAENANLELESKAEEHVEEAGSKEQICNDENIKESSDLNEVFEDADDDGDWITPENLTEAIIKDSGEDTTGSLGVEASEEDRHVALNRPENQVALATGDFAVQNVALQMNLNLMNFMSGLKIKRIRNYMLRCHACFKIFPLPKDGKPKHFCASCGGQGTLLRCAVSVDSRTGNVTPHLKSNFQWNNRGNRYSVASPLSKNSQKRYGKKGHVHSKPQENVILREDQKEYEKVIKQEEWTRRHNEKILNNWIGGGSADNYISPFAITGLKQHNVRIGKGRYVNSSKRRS
T3 sequence (looked up) 2: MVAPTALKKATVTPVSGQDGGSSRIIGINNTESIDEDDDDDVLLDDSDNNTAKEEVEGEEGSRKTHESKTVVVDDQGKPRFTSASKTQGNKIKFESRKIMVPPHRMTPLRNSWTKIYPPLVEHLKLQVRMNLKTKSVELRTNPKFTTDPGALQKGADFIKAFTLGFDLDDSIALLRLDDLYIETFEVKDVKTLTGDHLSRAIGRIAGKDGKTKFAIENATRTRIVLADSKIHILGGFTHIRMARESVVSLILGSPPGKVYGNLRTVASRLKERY
The experiment in a line: pull-down; 7 μM MBP-tagged protein held on amylose resin, 20 μM untagged protein; 50 mM HEPES pH 7.5, 200 mM NaCl, 5 mM MgCl2, 2 mM AMPPNP; 4 °C; eluted with 50 mM maltose; Coomassie-stained SDS-PAGE. The settings on record: both partners purified.

Series [5] deals with T4, MBP-Nob1 (Saccharomyces cerevisiae (strain ATCC …, UniProt Q08444)).
T4 chain: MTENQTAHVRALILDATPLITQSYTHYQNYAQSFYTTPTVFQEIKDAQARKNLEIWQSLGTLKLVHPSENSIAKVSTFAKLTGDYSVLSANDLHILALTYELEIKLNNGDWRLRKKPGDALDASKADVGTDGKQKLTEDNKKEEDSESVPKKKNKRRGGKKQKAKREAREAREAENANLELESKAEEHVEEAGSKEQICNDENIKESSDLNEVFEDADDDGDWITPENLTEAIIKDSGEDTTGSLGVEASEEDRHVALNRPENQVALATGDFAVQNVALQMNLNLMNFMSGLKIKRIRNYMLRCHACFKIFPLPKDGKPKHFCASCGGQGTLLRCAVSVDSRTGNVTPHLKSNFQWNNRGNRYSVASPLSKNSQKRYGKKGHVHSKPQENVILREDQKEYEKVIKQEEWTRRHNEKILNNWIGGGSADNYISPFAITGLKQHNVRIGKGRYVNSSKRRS
The experiment in a line: MBP pull-down (amylose resin), Coomassie SDS-PAGE; tested with AMPPNP; Rio1 binding requires Pno1 as well as Nob1.

D-A2 (3'-ITS1 product) came in with an equilibrium dissociation constant (Kd) in series [1] of 960 nM.

B1: Pno1 (protein)
chain: MVAPTALKKATVTPVSGQDGGSSRIIGINNTESIDEDDDDDVLLDDSDNNTAKEEVEGEEGSRKTHESKTVVVDDQGKPRFTSASKTQGNKIKFESRKIMVPPHRMTPLRNSWTKIYPPLVEHLKLQVRMNLKTKSVELRTNPKFTTDPGALQKGADFIKAFTLGFDLDDSIALLRLDDLYIETFEVKDVKTLTGDHLSRAIGRIAGKDGKTKFAIENATRTRIVLADSKIHILGGFTHIRMARESVVSLILGSPPGKVYGNLRTVASRLKERY
Take B1: the binding result in series [2] is “no binding”.

B2: Nob1 (protein)
chain: MTENQTAHVRALILDATPLITQSYTHYQNYAQSFYTTPTVFQEIKDAQARKNLEIWQSLGTLKLVHPSENSIAKVSTFAKLTGDYSVLSANDLHILALTYELEIKLNNGDWRLRKKPGDALDASKADVGTDGKQKLTEDNKKEEDSESVPKKKNKRRGGKKQKAKREAREAREAENANLELESKAEEHVEEAGSKEQICNDENIKESSDLNEVFEDADDDGDWITPENLTEAIIKDSGEDTTGSLGVEASEEDRHVALNRPENQVALATGDFAVQNVALQMNLNLMNFMSGLKIKRIRNYMLRCHACFKIFPLPKDGKPKHFCASCGGQGTLLRCAVSVDSRTGNVTPHLKSNFQWNNRGNRYSVASPLSKNSQKRYGKKGHVHSKPQENVILREDQKEYEKVIKQEEWTRRHNEKILNNWIGGGSADNYISPFAITGLKQHNVRIGKGRYVNSSKRRS
Consider B2, for which, in series [2], the binding result is given as “no binding”.

B3: maltose-binding protein (MBP)-Rio1 (enzyme, S. cerevisiae, UniProt Q12196 1-484, looked up)
chain: MSLEDKFDSLSVSQGASDHINNQLLEKYSHKIKTDELSFSRAKTSKDKANRATVENVLDPRTMRFLKSMVTRGVIADLNGCLSTGKEANVYHAFAGTGKAPVIDEETGQYEVLETDGSRAEYAIKIYKTSILVFKDRERYVDGEFRFRNSRSQHNPRKMIKIWAEKEFRNLKRIYQSGVIPAPKPIEVKNNVLVMEFLSRGNGFASPKLKDYPYKNRDEIFHYYHTMVAYMRLLYQVCRLVHADLSEYNTIVHDDKLYMIDVSQSVEPEHPMSLDFLRMDIKNVNLYFEKMGISIFPERVIFQFVISETLEKFKGDYNNISALVAYIASNLPIKSTEQDEAEDEIFRSLHLVRSLGGLEERDFDRYTDGKFDLLKSLIAHDNERNFAASEQFEFDNADHECSSGTEEFSDDEEDGSSGSEEDDEEEGEYYDDDEPKVLKGKKHEDKDLKKLRKQEAKDAKREKRKTKVKKHIKKKLVKKTKSKK
notes: Rio1, aspartate kinase, S. cerevisiae; cloned into pSV272 as a TEV-cleavable His6-MBP fusion; The tag was not cut off for this form; also called His-MBP-tagged Rio1; His6-MBP fusion protein; source: E. coli Rosetta DE3, purified (Ni-NTA, MonoQ, Superdex200)
Turning to B3, the binding result is “no binding” in series [3], “binds” in series [4] and “no binding” in series [5].
